In US20020037514A1, “Identification of nuclear receptor-dependent coregulator recruitment” (priority 2000, published 2002):

Target: T1, RARα-V5/RXRγ/DR-5 ternary complex (Homo sapiens, UniProt P10276)
T1 construct: the nuclear receptor subunits used in the invention are full length nuclear receptor monomer subunits; expressed in transfected cells; host or cells: CV-1 (green monkey kidney), whole-cell lysate
T1 sequence (P10276 1-462): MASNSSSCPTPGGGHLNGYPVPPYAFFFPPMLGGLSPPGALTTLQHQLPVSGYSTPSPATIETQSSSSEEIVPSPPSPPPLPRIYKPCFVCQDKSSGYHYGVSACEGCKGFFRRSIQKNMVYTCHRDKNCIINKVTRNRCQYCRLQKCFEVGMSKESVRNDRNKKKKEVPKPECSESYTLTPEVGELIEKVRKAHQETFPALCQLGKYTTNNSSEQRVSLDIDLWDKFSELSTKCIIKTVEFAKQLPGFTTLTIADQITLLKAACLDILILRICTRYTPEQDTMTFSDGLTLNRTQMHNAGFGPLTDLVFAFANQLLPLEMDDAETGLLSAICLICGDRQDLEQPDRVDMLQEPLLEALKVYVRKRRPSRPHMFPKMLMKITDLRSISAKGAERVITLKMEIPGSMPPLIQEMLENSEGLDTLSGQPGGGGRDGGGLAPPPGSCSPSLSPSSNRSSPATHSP
T1 sequence (P28705 1-463 partner): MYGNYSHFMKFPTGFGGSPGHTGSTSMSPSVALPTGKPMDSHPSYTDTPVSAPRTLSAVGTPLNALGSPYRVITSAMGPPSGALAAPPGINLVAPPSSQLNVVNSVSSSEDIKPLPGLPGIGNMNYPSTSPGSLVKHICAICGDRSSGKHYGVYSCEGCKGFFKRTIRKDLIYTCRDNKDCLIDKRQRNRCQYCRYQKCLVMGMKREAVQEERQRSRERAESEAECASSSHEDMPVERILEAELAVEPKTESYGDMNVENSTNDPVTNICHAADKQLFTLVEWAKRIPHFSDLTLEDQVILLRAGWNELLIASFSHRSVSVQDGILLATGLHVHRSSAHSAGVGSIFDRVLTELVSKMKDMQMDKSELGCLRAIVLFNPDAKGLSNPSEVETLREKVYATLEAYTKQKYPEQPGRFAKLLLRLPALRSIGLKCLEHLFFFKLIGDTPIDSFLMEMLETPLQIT
Assay: LXD peptide competition of ATRA-induced co-activator recruitment (Example 7, FIG. 8A)
Assay type: biochemical
Conditions: SRC-1 peptides at 40 μl (so in the source), DR-5 RARE
From the text: Nolte, R. T. et al., Nature 395:137-143 (1998). We addressed the importance of each of the three LXDs in mediating co-activator-receptor interaction using synthetic peptides comprising the LXD1, LXD2 or LXD3 amino acid sequences as competitors with SRC-1 in the DNA modified immunoprecipitation methods of the present invention. These peptides have the following amino acid sequences (with the characteristic LXXLL motif shown in bold):
Transfection, DR-5 oligonucleotide treatment, ligand treatment, immunoprecipitation and detection of associated co-factors were performed essentially as shown in the previous Examples. CV-1 cells were transfected with plasmids expressing either RARα/RXRγ-V5 or with RARγ/RXRα-V5. Synthetic LXD peptides were added to the cell lysate before the addition of retinoids at a concentration of 20 (ACTR) and 40 (SRC-1) […].

For “SLTERHKILHRLLQEGSPSDIT (Nuclear co-activator LXD-containing peptide) [SRC-1 LXD2]”, the “effect of peptide on ATRA-induced recruitment of SRC-1” value was “completely abolished”.
